Assay results from publication PMC9251887.

Target: GFP-Joka2 (tomato (SlJoka2))
Assay: FRET or BRET; FRET-FLIM in N. benthamiana leaves; donor GFP-Joka2, acceptors RFP fusions; GFP lifetime measured in GFP-JOKA2 aggregates

RFP-XopL (natural protein)
reduction of the donor's fluorescence lifetime: 0.1 ns
